In patent US20030232051A1 (GOVERNMENT OF THE UNITED STATES OF AMERICA AS REPRESENTED …, published 2003):

Biological target: T1, KIR2DL4 receptor (on NK cells or on cells transfected with 2DL4) (human, UniProt Q99706 22-377)
T1 construct: whole, on cells; Endogenous on human NK cells and NK cell lines (NK3.3, NKL, NK92) or on transfected cells; also called CD158d
Test: transfection experiments in Ba/F3 and 293T cells

T1 sequence (Q99706 22-377): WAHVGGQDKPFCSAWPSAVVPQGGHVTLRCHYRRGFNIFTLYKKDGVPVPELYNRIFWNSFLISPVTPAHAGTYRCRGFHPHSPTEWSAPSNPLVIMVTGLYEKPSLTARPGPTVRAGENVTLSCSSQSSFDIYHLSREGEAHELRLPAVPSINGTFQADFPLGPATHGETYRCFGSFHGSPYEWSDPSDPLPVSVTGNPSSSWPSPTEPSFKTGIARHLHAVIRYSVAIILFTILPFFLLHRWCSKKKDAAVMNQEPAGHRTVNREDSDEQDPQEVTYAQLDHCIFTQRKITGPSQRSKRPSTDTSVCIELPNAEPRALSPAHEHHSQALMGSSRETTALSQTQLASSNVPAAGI

| Binder | binding result |
| --- | --- |
| FcRγ chain (other, UniProt P30273 19-86, looked up, whole, on cells) LGEPQLCYILDAILFLYGIVLTLLYCRLKIQVRKAAITSYEKSDGVYTGLSTRNQETYETLKHEKPPQ | no binding |
| DAP12 (other, UniProt O43914 22-113, looked up, whole, on cells; also called DAP12 adaptor protein) LRPVQAQAQSDCSCSTVSPGVLAGIVMGDLVLTVLIALAVYFLGRLVPRGRGAAEAATRKQRITETESPYQELQGQRSDVYSDLNTQRPYYK | no binding |
| DAP10 (other, UniProt Q9UBK5 19-93, looked up, whole, on cells) QTTPGERSSLPAFYPGTSGSCSGCGSLSLPLLAGLVAADAVASLLIVGAVFLCARPRRSPAQEDGKVYINMPGRG | no binding |
